Laboratory results reported in US9677128.

Biological target: T1, J-binding protein 1 (JBP1) (Crithidia fasciculata) (UniProt Q9U6M2)
T1 sequence: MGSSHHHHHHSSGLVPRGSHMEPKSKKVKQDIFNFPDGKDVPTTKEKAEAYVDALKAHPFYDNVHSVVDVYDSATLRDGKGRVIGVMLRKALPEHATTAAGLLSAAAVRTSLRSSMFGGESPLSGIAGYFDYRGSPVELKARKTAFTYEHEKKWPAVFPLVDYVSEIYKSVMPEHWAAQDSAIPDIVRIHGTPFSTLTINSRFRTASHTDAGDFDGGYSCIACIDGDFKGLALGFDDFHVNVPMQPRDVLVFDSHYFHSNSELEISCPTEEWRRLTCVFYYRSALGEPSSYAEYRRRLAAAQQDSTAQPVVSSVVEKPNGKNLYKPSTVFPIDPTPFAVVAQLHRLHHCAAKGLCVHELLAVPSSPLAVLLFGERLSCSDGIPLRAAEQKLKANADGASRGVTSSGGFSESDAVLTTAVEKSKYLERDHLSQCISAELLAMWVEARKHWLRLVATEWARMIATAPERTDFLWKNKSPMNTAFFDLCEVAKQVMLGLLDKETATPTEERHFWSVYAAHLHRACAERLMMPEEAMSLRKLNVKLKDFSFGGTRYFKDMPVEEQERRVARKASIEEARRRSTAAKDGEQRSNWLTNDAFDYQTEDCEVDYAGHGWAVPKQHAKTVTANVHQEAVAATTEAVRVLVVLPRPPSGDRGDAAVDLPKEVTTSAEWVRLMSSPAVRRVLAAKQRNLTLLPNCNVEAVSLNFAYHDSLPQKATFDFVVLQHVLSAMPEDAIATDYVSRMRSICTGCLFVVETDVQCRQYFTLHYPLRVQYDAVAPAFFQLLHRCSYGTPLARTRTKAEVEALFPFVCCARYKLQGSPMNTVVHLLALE
Assay: pulldown
Settings: beta-glucosyl-5hmC in place of all C (outside primers); 132 ng JBP1 beads, 10 ng DNA, 150 mM NaCl, 10 mM Tris pH 8.0, 2 mM EDTA, room temperature

pUC18 2.7 kb PCR product, beta-glu-5hmC gave a binding signal (% DNA pulled down) of less than 6.
